In patent US20190359683A1:
pKd: −log10 of the molar value.

Biological target: recombinant human cardiotrophin-like cytokine factor 1 (CLCF1) (human) (UniProt Q9UBD9)
Assay: yeast display binding

recombinant human cardiotrophin-like cytokine factor 1 (CLCF1) (human), sequence (Q9UBD9 28-225): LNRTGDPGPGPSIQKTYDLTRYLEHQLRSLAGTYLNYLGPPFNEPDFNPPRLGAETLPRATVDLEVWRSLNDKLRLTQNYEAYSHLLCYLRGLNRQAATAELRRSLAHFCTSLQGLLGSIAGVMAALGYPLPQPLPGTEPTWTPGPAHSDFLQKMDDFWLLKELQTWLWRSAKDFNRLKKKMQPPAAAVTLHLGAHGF

pKd: 10.85
Substance: yeast-displayed eCNTFR (variant 4 with Y177H and K178N) (from UniProt P26992 20-342)
